From article PMC4895385, “The ubiquitin E3 ligase TRAF6 exacerbates pathological cardiac hypertrophy via TAK1-dependent signalling” (Nature Communications, 2016)

Target: T1, FLAG-tagged TAK1 (pcDNA5-FLAG-TAK1) (human, UniProt O43318-2 1-579)
T1 construct: TAK1 (MAP3K7), human, gene cloned into pcDNA5-FLAG-C1; the truncates end at residue 579, so the 579-residue isoform is meant; source: HEK293T, transfected, in lysate; immunopurified from HEK293T (eluted with FLAG peptide) for the GST pull-down
T1 sequence (looked up): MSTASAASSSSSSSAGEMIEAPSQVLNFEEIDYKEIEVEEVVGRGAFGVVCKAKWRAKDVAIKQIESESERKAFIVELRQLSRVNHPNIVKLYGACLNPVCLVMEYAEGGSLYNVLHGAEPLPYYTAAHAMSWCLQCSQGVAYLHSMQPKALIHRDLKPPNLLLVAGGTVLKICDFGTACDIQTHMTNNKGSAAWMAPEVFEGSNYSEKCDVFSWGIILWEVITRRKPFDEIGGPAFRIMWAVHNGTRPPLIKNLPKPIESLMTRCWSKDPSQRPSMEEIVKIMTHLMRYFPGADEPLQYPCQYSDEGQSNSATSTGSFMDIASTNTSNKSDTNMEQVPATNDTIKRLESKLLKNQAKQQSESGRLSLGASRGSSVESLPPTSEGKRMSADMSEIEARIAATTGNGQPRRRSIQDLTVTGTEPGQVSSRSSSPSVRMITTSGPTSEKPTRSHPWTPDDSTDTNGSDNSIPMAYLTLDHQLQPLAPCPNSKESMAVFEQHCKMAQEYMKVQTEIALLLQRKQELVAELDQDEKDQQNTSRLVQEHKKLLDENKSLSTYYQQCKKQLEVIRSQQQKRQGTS
Test: pull-down; GST-TRAF6 retained on glutathione-Sepharose 4B beads, incubated 4 h at 4 °C with immunopurified Flag-TAK1 from HEK293T cells; eluted with 20 mM reduced glutathione; blot with anti-FLAG
Conditions: both partners purified

binding result: binds
B1: GST-tagged TRAF6 (pGEX-4T-1-GST-TRAF6) (natural protein, human, UniProt Q9Y4K3 1-522, looked up)
chain: MSLLNCENSCGSSQSESDCCVAMASSCSAVTKDDSVGGTASTGNLSSSFMEEIQGYDVEFDPPLESKYECPICLMALREAVQTPCGHRFCKACIIKSIRDAGHKCPVDNEILLENQLFPDNFAKREILSLMVKCPNEGCLHKMELRHLEDHQAHCEFALMDCPQCQRPFQKFHINIHILKDCPRRQVSCDNCAASMAFEDKEIHDQNCPLANVICEYCNTILIREQMPNHYDLDCPTAPIPCTFSTFGCHEKMQRNHLARHLQENTQSHMRMLAQAVHSLSVIPDSGYISEVRNFQETIHQLEGRLVRQDHQIRELTAKMETQSMYVSELKRTIRTLEDKVAEIEAQQCNGIYIWKIGNFGMHLKCQEEEKPVVIHSPGFYTGKPGYKLCMRLHLQLPTAQRCANYISLFVHTMQGEYDSHLPWPFQGTIRLTILDQSEAPVRQNHEEIMDAKPELLAFQRPTIPRNPKGFGYVTFMHLEALRQRTFIKDDTLLVRCEVSTRFDMGSLRREGFQPRSTDAGV
notes: TRAF6, human, gene cloned into pGEX-4T-1; pGEX-4T-1 normally places GST at the N-terminus (surmised); source: E. coli Rosetta (DE3), retained on glutathione-Sepharose 4B beads and washed
